We go through 1 substance from PMC11257990.

“And” between values parts separate entries of the source, which are not always exact repeats. Identical values can stand only once.

For the assay, the target named is CUL9 (endogenous, U2OS) (human (endogenous in U2OS)) (UniProt Q8IWT3). Briefly: sucrose gradient fractionation; 1 mg U2OS lysate on a continuous 5–40% sucrose gradient, 160,000g, 16 h, 4 °C; fractions immunoblotted for CUL9; purified hexameric CUL9–RBX1 and dimeric CUL9^(R125A Y152A)–RBX1 run for comparison. The settings on record: remark: other sources report otherwise.

Turning to CUL9 (endogenous, U2OS), Q8IWT3 1-2517, the stoichiometry N was 6 and 2.
